According to the supplement of paper PMC10724198:

system: Saccharomyces cerevisiae; experiment: protein stability index of tFT-peptide fusion in wild type (PSI (0-1 scale)); higher = more stable (slower turnover); details: genetic background: wild type
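For protein stability index of tFT-peptide fusion in deletion strain of DOA10 in this document: PSI per variant is the weighted mean of its sequencing read distribution over the sorted stability bins, counting only variants with over 10 reads summed across bins.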
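For protein stability index of tFT-peptide fusion in wild type in this document: PSI derived as read-weighted mean over the 8 sorting bins, only variants exceeding 10 total reads kept, mCherry placed adjacent to the peptide and sfGFP distal.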

Row | Sequence | protein stability index
1 | AITLPMCPFLLR | 0.624
2 | AITLPMCPHLLR | 0.645
3 | AITLPMCPLALR | 0.577
4 | AITLPMCPLELR | 0.641
5 | AITLPMCPLLCR | 0.238
6 | AITLPMCPLLIR | 0.219
7 | AITLPMCPLLLQ | 0.567
8 | AITLPMCPLLLRG | 0.31
9 | AITLPMCPLLLW | 0.436
10 | AITLPMCPLLLY | 0.404
11 | AITLPMCPLLNR | 0.644
12 | AIWLPMCPLLLR | 0.224
13 | CAVSLPILLFFR | 0.0547
14 | CLESLPILLFFR | 0.192
15 | CLGSLPILLFFR | 0.0966
16 | CLMSLPILLFFR | 0.0514
17 | CLVDLPILLFFR | 0.0636
18 | CLVILPILLFFR | 0.0975
19 | CLVSDPILLFFR | 0.589
20 | CLVSEPILLFFR | 0.499
21 | CLVSLPIGLFFR | 0.101
22 | CLVSLPILEFFR | 0.637
23 | CLVSLPILLCFR | 0.0846

Row | Sequence | protein stability index
24 | CLVSLPILLFFN | 0.118
25 | CLVSLPILLFFRC | 0.0599
26 | CLVSLPILLFFRG | 0.0927
27 | CLVSLPILLFFRI | 0.0568
28 | CLVSLPILLFFRM | 0.0495
29 | CLVSLPILLFFS | 0.297
30 | CLVSLPILLFQR | 0.515
31 | CLVSLPILLNFR | 0.424
32 | CLVSLPILLWFR | 0.0579
33 | CLVSLPIWLFFR | 0.0275
34 | CLVSRPILLFFR | 0.115
35 | CLVTLPILLFFR | 0.048
36 | CLVYLPILLFFR | 0.0623
37 | CLYMCSVGCWFR | 0.276
38 | CTVSLPILLFFR | 0.0564
39 | DSLRVLLPLYFR | 0.33
40 | GITLPMCPLLLR | 0.099
41 | GLKMCSVGCWFR | 0.247
42 | GLYMCKVGCWFR | 0.396
43 | GLYMCSIGCWFR | 0.231
44 | GLYMCSKGCWFR | 0.489
45 | GLYMCSVECWFR | 0.456
46 | GLYMCSVGCWFQ | 0.476

Row | Sequence | protein stability index
47 | GLYMCSVGCWFRY | 0.173
48 | GLYMCSVGCWFV | 0.4
49 | GLYMCSVGCWKR | 0.612
50 | GLYMCSVGCWSR | 0.584
51 | GLYMCSVGCWYR | 0.407
52 | GLYMCSVGTWFR | 0.514
53 | GLYMCSVGVWFR | 0.198
54 | GLYMCSVVCWFR | 0.253
55 | GLYMCSWGCWFR | 0.296
56 | GLYMKSVGCWFR | 0.257
57 | GLYNCSVGCWFR | 0.414
58 | GLYRCSVGCWFR | 0.428
59 | GVYMCSVGCWFR | 0.276
60 | GYYMCSVGCWFR | 0.227
61 | LITLPMCPLLLR | 0.349
62 | NVTRLDAIYFRI | 0.379
63 | RGLRVLLPLYFR | 0.378
64 | RGTRLDAIYFRI | 0.57
65 | RSHRVLLPLYFR | 0.317
66 | RSLEVLLPLYFR | 0.219
67 | RSLNVLLPLYFR | 0.266
68 | RSLQVLLPLYFR | 0.264
69 | RSLRGLLPLYFR | 0.444

Row | Sequence | protein stability index
70 | RSLRRLLPLYFR | 0.466
71 | RSLRVCLPLYFR | 0.194
72 | RSLRVLHPLYFR | 0.218
73 | RSLRVLLNLYFR | 0.397
74 | RSLRVLLPEYFR | 0.653
75 | RSLRVLLPFYFR | 0.564
76 | RSLRVLLPIYFR | 0.242
77 | RSLRVLLPLNFR | 0.535
78 | RSLRVLLPLPFR | 0.64
79 | RSLRVLLPLYFRM | 0.202
80 | RSLRVLLPLYQR | 0.617
81 | RSLRVLLPLYRR | 0.624
82 | RSLRVLLQLYFR | 0.383
83 | RSLRVVLPLYFR | 0.178
84 | RSLSVLLPLYFR | 0.289
85 | RTLRVLLPLYFR | 0.304
86 | RTTRLDAIYFRI | 0.498
87 | RVGRLDAIYFRI | 0.412
88 | RVTRADAIYFRI | 0.525
89 | RVTRDDAIYFRI | 0.652

system: Saccharomyces cerevisiae; experiment: protein stability index of tFT-peptide fusion in deletion strain of DOA10 (PSI (0-1 scale)); higher = more stable (slower turnover); details: not given
Experimental: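 MPS profiling in S. cerevisiae of two library types built from selected 12-aa C-degron peptides (IN1, IN2, LN1, LN3, VN2, R1-R5, W1-W3, Atg1 and Rpa12 C-termini): saturation mutagenesis libraries and C-terminal +1 capping libraries (13 aa). Each peptide is fused to the C-terminus of a sfGFP-mCherry timer, after a GGGS linker. Cells are FACS-sorted into 8 mCherry/sfGFP bins and sequenced. PSI runs from 0 (unstable) to 1 (stable), measured once in wild type and in the das1Δ or doa10Δ background.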

Row | Sequence | protein stability index
90 | AITLPMCPFLLR | 0.661
91 | AITLPMCPHLLR | 0.687
92 | AITLPMCPLALR | 0.643
93 | AITLPMCPLELR | 0.682
94 | AITLPMCPLLCR | 0.265
95 | AITLPMCPLLIR | 0.427
96 | AITLPMCPLLLQ | 0.654
97 | AITLPMCPLLLRG | 0.55
98 | AITLPMCPLLLW | 0.646
99 | AITLPMCPLLLY | 0.517
100 | AITLPMCPLLNR | 0.671
101 | AIWLPMCPLLLR | 0.657
102 | CAVSLPILLFFR | 0.627
103 | CLESLPILLFFR | 0.65
104 | CLGSLPILLFFR | 0.628
105 | CLMSLPILLFFR | 0.591
106 | CLVDLPILLFFR | 0.635
107 | CLVILPILLFFR | 0.456
108 | CLVSDPILLFFR | 0.656
109 | CLVSEPILLFFR | 0.643
110 | CLVSLPIGLFFR | 0.674
111 | CLVSLPILEFFR | 0.672
112 | CLVSLPILLCFR | 0.564

Row | Sequence | protein stability index
113 | CLVSLPILLFFN | 0.288
114 | CLVSLPILLFFRC | 0.45
115 | CLVSLPILLFFRG | 0.564
116 | CLVSLPILLFFRI | 0.469
117 | CLVSLPILLFFRM | 0.458
118 | CLVSLPILLFFS | 0.467
119 | CLVSLPILLFQR | 0.583
120 | CLVSLPILLNFR | 0.655
121 | CLVSLPILLWFR | 0.567
122 | CLVSLPIWLFFR | 0.58
123 | CLVSRPILLFFR | 0.638
124 | CLVTLPILLFFR | 0.576
125 | CLVYLPILLFFR | 0.404
126 | CLYMCSVGCWFR | 0.584
127 | CTVSLPILLFFR | 0.619
128 | DSLRVLLPLYFR | 0.676
129 | GITLPMCPLLLR | 0.668
130 | GLKMCSVGCWFR | 0.678
131 | GLYMCKVGCWFR | 0.631
132 | GLYMCSIGCWFR | 0.602
133 | GLYMCSKGCWFR | 0.673
134 | GLYMCSVECWFR | 0.465
135 | GLYMCSVGCWFQ | 0.504

Row | Sequence | protein stability index
136 | GLYMCSVGCWFRY | 0.619
137 | GLYMCSVGCWFV | 0.467
138 | GLYMCSVGCWKR | 0.66
139 | GLYMCSVGCWSR | 0.622
140 | GLYMCSVGCWYR | 0.611
141 | GLYMCSVGTWFR | 0.668
142 | GLYMCSVGVWFR | 0.453
143 | GLYMCSVVCWFR | 0.314
144 | GLYMCSWGCWFR | 0.665
145 | GLYMKSVGCWFR | 0.673
146 | GLYNCSVGCWFR | 0.674
147 | GLYRCSVGCWFR | 0.67
148 | GVYMCSVGCWFR | 0.622
149 | GYYMCSVGCWFR | 0.643
150 | LITLPMCPLLLR | 0.626
151 | NVTRLDAIYFRI | 0.711
152 | RGLRVLLPLYFR | 0.673
153 | RGTRLDAIYFRI | 0.684
154 | RSHRVLLPLYFR | 0.651
155 | RSLEVLLPLYFR | 0.691
156 | RSLNVLLPLYFR | 0.669
157 | RSLQVLLPLYFR | 0.675
158 | RSLRGLLPLYFR | 0.696

Row | Sequence | protein stability index
159 | RSLRRLLPLYFR | 0.683
160 | RSLRVCLPLYFR | 0.671
161 | RSLRVLHPLYFR | 0.701
162 | RSLRVLLNLYFR | 0.659
163 | RSLRVLLPEYFR | 0.677
164 | RSLRVLLPFYFR | 0.668
165 | RSLRVLLPIYFR | 0.663
166 | RSLRVLLPLNFR | 0.671
167 | RSLRVLLPLPFR | 0.676
168 | RSLRVLLPLYFRM | 0.411
169 | RSLRVLLPLYQR | 0.659
170 | RSLRVLLPLYRR | 0.673
171 | RSLRVLLQLYFR | 0.606
172 | RSLRVVLPLYFR | 0.679
173 | RSLSVLLPLYFR | 0.682
174 | RTLRVLLPLYFR | 0.657
175 | RTTRLDAIYFRI | 0.658
176 | RVGRLDAIYFRI | 0.647
177 | RVTRADAIYFRI | 0.684
178 | RVTRDDAIYFRI | 0.684
